From PMC11464722 (Nature Communications, 2024)

Biological target: SNAP-tagged murine µOR on HEK293 cells (murine, UniProt P42866, SNAP-Lumi4-Tb (terbium cryptate) on the SNAP tag)
Assay: AlphaScreen or HTRF

Chain of SNAP-tagged murine µOR on HEK293 cells (P42866 whole entry): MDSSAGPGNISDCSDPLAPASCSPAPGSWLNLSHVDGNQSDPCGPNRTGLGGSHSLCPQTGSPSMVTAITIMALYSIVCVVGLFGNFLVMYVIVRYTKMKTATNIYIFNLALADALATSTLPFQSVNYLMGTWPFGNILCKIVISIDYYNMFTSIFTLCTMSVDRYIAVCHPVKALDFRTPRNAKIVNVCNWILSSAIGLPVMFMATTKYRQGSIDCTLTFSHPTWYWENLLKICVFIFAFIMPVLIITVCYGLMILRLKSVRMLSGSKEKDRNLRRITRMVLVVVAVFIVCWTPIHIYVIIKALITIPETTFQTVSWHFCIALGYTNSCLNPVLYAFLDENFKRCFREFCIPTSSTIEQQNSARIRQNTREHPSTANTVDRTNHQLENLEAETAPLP

B1: mNbE (N45K, Q117K, Q120P)-6xHis (VHH)
VHH: QVQLVESGGGLVQAGGSLRLSCAASGSISSISTMGWYRQAPGKERELVAAITSGGSTNYADSVKGRFTISRDNAKNTVYLQMNSLKPEDTAVYYCNFKYYSGSYFYKSEYDYWGKGTPVTVSS
- binding result: binds
